This test deals with recombinant human KLK5 (human) (UniProt Q9Y337). Put plainly: cell-based or functional assay.
Chain of recombinant human KLK5 (human) (Q9Y337 67-293): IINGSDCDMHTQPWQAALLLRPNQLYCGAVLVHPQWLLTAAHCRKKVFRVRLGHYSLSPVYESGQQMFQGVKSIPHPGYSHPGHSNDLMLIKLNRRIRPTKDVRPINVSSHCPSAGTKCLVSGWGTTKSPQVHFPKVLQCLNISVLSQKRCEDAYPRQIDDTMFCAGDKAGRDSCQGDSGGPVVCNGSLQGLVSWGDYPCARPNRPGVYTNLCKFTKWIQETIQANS

For the substance Spink5.Fc (Fc fusion), the IC50, KLK5-induced IL-8 secretion by A549 cells stood at 21 nM.
